This is an account of results in patent US20260297200 (published 2026).

Numbering of substitutions follows the chain as printed.

To fix the notation:
T1: mouse EGFR-His (mouse)
T1 chain: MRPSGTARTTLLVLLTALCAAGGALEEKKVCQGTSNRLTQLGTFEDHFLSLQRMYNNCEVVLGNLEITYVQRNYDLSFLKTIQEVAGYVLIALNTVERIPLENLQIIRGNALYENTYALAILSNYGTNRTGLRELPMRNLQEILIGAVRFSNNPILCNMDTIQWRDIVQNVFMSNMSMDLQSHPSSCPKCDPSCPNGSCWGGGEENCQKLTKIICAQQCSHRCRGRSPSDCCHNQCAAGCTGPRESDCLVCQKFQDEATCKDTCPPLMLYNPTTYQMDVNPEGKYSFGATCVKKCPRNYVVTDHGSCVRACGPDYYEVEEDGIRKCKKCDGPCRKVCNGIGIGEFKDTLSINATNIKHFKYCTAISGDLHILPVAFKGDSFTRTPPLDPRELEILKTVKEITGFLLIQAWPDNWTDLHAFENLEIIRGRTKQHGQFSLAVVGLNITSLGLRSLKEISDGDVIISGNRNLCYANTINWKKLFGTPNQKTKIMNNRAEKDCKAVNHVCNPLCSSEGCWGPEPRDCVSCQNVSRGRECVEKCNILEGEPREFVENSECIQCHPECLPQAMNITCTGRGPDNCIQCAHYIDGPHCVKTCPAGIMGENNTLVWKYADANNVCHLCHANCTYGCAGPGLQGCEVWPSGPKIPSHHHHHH

B1: eIg MKU011-A7xhuU3 EGFR arm (antibody, V domains shown)
VH: QVQLVQSGGGVVQPGGSLRLSCAASGFTFSSYGMHWVRQAPGKGLEWVAFIRYDGSNKYYADSVKGRFTISRDNSKNTLYLQMNSLRAEDTAVYYCAKDGNSGYDSMDYWGQGTLVTVSS
VL: QPVLTQSPSASGTPGQRVTISCSGVSSNIGRNYVYWYQQFPGTAPKLLIYATHQRPSGVPDRFSGSKSGTSASLAISGLRSEDEANYYCAAWDDGVTGWVFGGGTKLTVLG
B2: Fab-eIg YU250-H10xhuU3 EGFR arm (antibody)
chain 1: B1 VH
chain 2: QSVLTQPPSVSGAPGQRVTISCSGGSSNVGRNGVNWFQHLPEKAPKLLIYYDAFLSSGVSDRFSGSKSGTSASLAIRGLQSDDEADYYCAAWDDSLYSWVFGGGTNLTVL
B3: Fab-eIg MKU011-A7xhuU3 EGFR arm (antibody, V domains shown)
VH: B1 VH
VL: QPVLTQSPSASGTPGQRVTISCSGVSSNIGRNYVYWYQQFPGTAPKLLIYATHQRPSGVPDRFSGSKSGTSASLAISGLRSEDEANYYCAAWDDGVTGWVFGGGTKLTVL
B4: YU250-A02 Fab-His (antibody, V domains shown)
VH: B1 VH with V5Q, Q6E
VL: B2 chain 2 with D82E, A91S, Y97T, S98G, N106K
B5: YU250-H10 Fab-His (antibody)
chain 1: B1 VH
chain 2: B2 chain 2
B6: MKU011-A7 Fab-His (antibody, V domains shown)
VH: B1 VH
VL: B3 VL
B7: scDb-scFv YU250-H10xhuU3 EGFR arm (antibody)
chain 1: B1 VH
chain 2: B2 chain 2
B8: scDb YU250-H10xhuU3 EGFR arm (antibody)
chain 1: B1 VH
chain 2: B2 chain 2
B9: eIg YU250-H10xhuU3 EGFR arm (antibody)
chain 1: not shown
chain 2: QSVLTQPPSVSGAPGQRVTISCSGGSSNVGRNGVNWFQHLPEKAPKLLIYYDAFLSSGVSDRFSGSKSGTSASLAIRGLQSDDEADYYCAAWDDSLYSWVFGGGTNLTVLGQPKAAPSVTLFPPSSEELQANKATLVCLISDFYPGAVTVAWKADSSPVKAGVETTTPSKQSNNKYAASSYLSLTPEQWKSHRSYSCQVTHEGSTVEKTVAPTECS
B10: Db3-43xH10-Ig EGFR arm (antibody)
chain 1: B1 VH
chain 2: B2 chain 2
B11: Fab-eIg 2+2 H10x3-43 EGFR arm (antibody)
chain 1: B1 VH
chain 2: B2 chain 2
B12: Fab/scFv-Fc H10x3-43 EGFR arm (antibody)
chain 1: not shown
chain 2: B9 chain 2
B13: Db3-43x3-43/FabH10-Fckih EGFR arm (antibody)
chain 1: not shown
chain 2: B9 chain 2
B14: eIg 1+1 H10x3-43 EGFR arm (antibody)
chain 1: not shown
chain 2: B9 chain 2
B15: eIg 1+1 H10x5D5 EGFR arm (antibody)
chain 1: not shown
chain 2: B9 chain 2
B16: eIg 1+1 H10x4D5 EGFR arm (antibody)
chain 1: not shown
chain 2: B9 chain 2
B17: scDb-scFv YU250-H10xhuU3 CD3 arm (antibody, V domains shown)
VH: QVQLVQSGAEVKKPGSSVKVSCKASGGTFSGYTMNWVRQAPGQGLEWMGLINPYKGVSTYNGKFKDRVTITADKSTSTAYMELSSLRSEDTAVYYCARSGYYGDSDWYFDVWGQGTLVTVSS
VL: DIQMTQSPSSLSASVGDRVTITCRASQDIRNYLNWYQQKPGKAPKLLIYYTSRLHSGVPSRFSGSGSGTDFTFTISSLQPEDIATYYCQQGNTLPWTFGQGTKLEIKR
B18: Fab-eIg YU250-H10xhuU3 CD3 arm (antibody, V domains shown)
VH: B17 VH
VL: B17 VL
B19: scDb YU250-H10xhuU3 CD3 arm (antibody, V domains shown)
VH: B17 VH
VL: B17 VL
B20: eIg YU250-H10xhuU3 CD3 arm (antibody, V domains shown)
VH: B17 VH
VL: B17 VL
B21: Panitumumab (antibody, V domains shown)
VH: QVQLQESGPGLVKPSETLSLTCTVSGGSVSSGDYYWTWIRQSPGKGLEWIGHIYYSGNTNYNPSLKSRLTISIDTSKTQFSLKLSSVTAADTAIYYCVRDRVTGAFDIWGQGTMVTVSS
VL: DIQMTQSPSSLSASVGDRVTITCQASQDISNYLNWYQQKPGKAPKLLIYDASNLETGVPSRFSGSGSGTDFTFTISSLQPEDIATYFCQHFDHLPLAFGGGTKVEIKR

CD3 on Jurkat, sequence (P07766 23-207): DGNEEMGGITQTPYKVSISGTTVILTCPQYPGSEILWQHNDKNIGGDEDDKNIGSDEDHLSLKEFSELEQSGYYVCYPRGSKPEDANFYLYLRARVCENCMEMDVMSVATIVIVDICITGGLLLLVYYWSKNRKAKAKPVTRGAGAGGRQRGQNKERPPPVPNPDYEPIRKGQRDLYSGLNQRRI

The target of one assay is T2, human EGFR on cells (human, UniProt P00533). In words: FACS, FaDu. On the technique in general: Flow cytometry measures light scatter and fluorescence of single cells or particles in a stream.
A word on the EC50: it is the concentration at which the effect is half-maximal. Higher therefore signals lower potency in that assay. B1: the EC50 is 3.28 nM.
Same read-out and setting: the same measure for B2: 0.32 nM.
The same measure, in the same setting: the same measure for B3: 0.4 nM.

The target in the next assay is EGFR-His (human ECD) (human). In words: BLI. (Biolayer interferometry detects binding as a change in optical thickness at a sensor tip.)
One may read the Kd as the free concentration of one partner at which half of the binding sites on the other are occupied at equilibrium, for simple one-to-one binding. High values mean a looser complex, low ones a tighter complex. As to B4, the Kd worked out at 12.9 nM.
Turning to B5, the affinity, expressed as Kd, was 4.17 nM.
Same read-out and setting: the figure for B6 is 55.8 nM.

In a further assay the target is T2, human EGFR on cells. Nature of the assay: FACS, FaDu. This is another data set of the same source.
B2 returned an EC50 of 0.76 nM.
The same measure, in the same setting: the same measure for B7: 0.74 nM; for B8: 1.68 nM.
On the same count and under the same terms, the figure for B9 is 2.17 nM.

For a further assay, the target named is EGFR-moIgG2a-Fc (human). Nature of the assay: ELISA. (In an ELISA, binding on a coated surface is turned into a signal by an enzyme label.)
The molecule B10 displayed an EC50 of 0.9 nM.
Take B11: a half-maximal effect (EC50) was put at 0.5 nM.
For B12, the EC50 was 0.3 nM.
The same measure, in the same setting: the same measure for B13: 0.1 nM; for B14: 0.5 nM; for B15: 1.1 nM.
Same read-out and setting: the same measure for B16: 6.2 nM.

A further assay addresses CD3 on Jurkat (human, UniProt P07766). In words: FACS, Jurkat.
Molecule B17 registered an EC50 above 10 nM.
As for B18, the EC50 was above 10 nM.
Same read-out and setting: the figure for B19 is 7.56 nM.
On to B20, for which the EC50 is above 10 nM.

For the next assay, the target named is T1, mouse EGFR-His. In words: ELISA, 10 nM.
In the case of B21, the binding result is on record as “no binding”.

A further assay concerns the target T2, human EGFR on cells. In words: FACS, LIM1215.
In turn, B7 yielded a concentration giving a half-maximal response (EC50) of 0.31 nM.
On the same count and under the same terms, the same measure for B8: 1.02 nM; for B9: 0.85 nM.

In a further assay the target is T2, human EGFR on cells. Nature of the assay: FACS, HCT-116.
Turning to B1, the EC50 is 4.28 nM.
On the same count and under the same terms, the figure for B2 is 0.13 nM; for B3 it is 0.16 nM.
On the same count and under the same terms, the figure for B9 is 0.46 nM.

The target of the next assay is T2, human EGFR on cells. In words: FACS, SW620.
Consider B1, for which the concentration for a half-maximal effect (EC50) was 0.74 nM.
On the same count and under the same terms, the figure for B2 is 0.03 nM; for B3 it is 0.03 nM; for B9 it is 0.21 nM.
